Test system: MCF7 cells
Test: Proliferation of MCF7 cells after peptide treatment
Format: cell-based
Settings: MCF7 cells (FIG. 5)

B1: HB-EGF: peptide mimetic HB-EGF (R&D Systems 259-HE-050) (protein, UniProt Q99075 63-148, looked up)
Heparin-binding EGF-like …: DLQEADLDLLRVTLSSKPQALATPNKEEHGKRKKKGKGLGKKRDPCLRKYKDFCIHGECKYVKELRAPSCICHPGYHGERCHGLSL
- proliferation after peptide treatment: does not affect proliferation
